Publication PMC7427093, “Revising the mechanism of p75NTR activation: intrinsically monomeric state of death domains invokes the "helper" hypothesis” (Scientific Reports, 2020)
“And” between values parts separate entries of the source, which are not always exact repeats. Equal entries are not always repeated.

Key:
[1] = target: p75NTR death domain (Homo sapiens) (UniProt P08138); assay: homo-FRET; settings: cited from earlier work
[2] = target: the molecule itself; assay: cross-linking; spontaneous disulfide formation of purified protein in DMPC/CHAPS q = 1 bicelles, LPR 1,000:1 (repeated at 200:1), without reducing agent, room temperature; non-reducing SDS-PAGE at several time points; irreversible second-order kinetics

Sequence of p75NTR death domain (P08138 341-424): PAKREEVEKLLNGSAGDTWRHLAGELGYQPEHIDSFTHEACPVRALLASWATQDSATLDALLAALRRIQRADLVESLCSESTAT

| Molecule | Kd [1] [µM] | stoichiometry N [2] |
| --- | --- | --- |
| p75NTR death domain (from UniProt P08138) | 49 | – |
| rP75-ΔECD-3CX-249C: rat p75NTR residues 245-425 with T249C, C279S, C379S, C416S (domain or fragment, UniProt P07174 245-425, looked up, p75 neurotrophin receptor (p75NTR), rat, UniProt P07174, residues 245-425 (transmembrane and intracellular domains); also called T249C mutant; p75-ΔECD-T249C; source: also in the membrane fraction of E. coli, not purified) TRGTCDNLIPVYCSILAAVVVGLVAYIAFKRWNSSKQNKQGANSRPVNQTPPPEGEKLHSDSGISVDSQSLHDQQTHTQTASGQALKGDGNLYSSLPLTKREEVEKLLNGDTWRHLAGELGYQPEHIDSFTHEASPVRALLASWGAQDSATLDALLAALRRIQRADIVESLSSESTATSPV | – | 2 and 4 and 6 |
